Consider 1 substance from patent publication US20220354938A1.

The target of this assay is C2 epitope-peptide (…, SEQ ID NO:21) / human HLA-A2 MHC class I molecule complex on the cell surface (human; human CMV).

In the case of “TCR CMV-pp65-PE STAR™ multimer reagent (Altor Bioscience Corp., Miramar, Fla., U.S.)”, the iMFI came to 10100 RFU and the percentage of pMHC I complex presenting cells stood at 35%.
